# Laboratory results as given in patent US20230374132A1 (Innovent, published 2023).
# Assays:
# [1] = target: T1, human CD3 E&D complex protein (Sino Biological Inc., CT026H0323H) (human, UniProt P07766 23-126; P04234 22-105); test: BLI, antibody on sensor
# T1 construct: bought heterodimer; also called human CD3 protein (CT026H0323H)
# [2] = target: T2, human CD3E&G complex (Sino Biological Inc., CT041-H0305H) (human, UniProt P07766 23-126; P09693 23-116); test: BLI, antibody on sensor
# T2 construct: bought heterodimer; also called human CD3E&G antigen
# T2 sequence (P07766 23-126, chain 1 of 2): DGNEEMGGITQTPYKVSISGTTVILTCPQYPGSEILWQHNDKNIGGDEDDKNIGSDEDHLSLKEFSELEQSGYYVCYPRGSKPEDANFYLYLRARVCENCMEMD
# T2 sequence (P09693 23-116, chain 2 of 2): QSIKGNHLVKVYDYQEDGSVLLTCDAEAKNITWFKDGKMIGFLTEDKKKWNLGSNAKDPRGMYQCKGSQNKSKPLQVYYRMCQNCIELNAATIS
# T1 sequence (P07766 23-126, chain 1 of 2): as the sequence (P07766 23-126, chain 1 of 2) above
# T1 sequence (P04234 22-105, chain 2 of 2): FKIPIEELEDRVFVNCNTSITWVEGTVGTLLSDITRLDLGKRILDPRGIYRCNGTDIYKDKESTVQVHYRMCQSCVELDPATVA
Binder,Kd [1],koff [1],kon [1],Kd [2],koff [2],kon [2],binding result [2]
"hzsp34.78 (antibody, human IgG1, lambda, L234A L235A, V domains shown, CDR mutant of hzsp34.24; IgG1 L234A L235A, lambda) VH: EVQLVESGGGLVQPGGSLKLSCAASGFTFGTYAMNWVRQASGKGLEWVGRIRSKYNNYATYYADSVKDRFTISRDDSKSTLYLQMNSLKTEDTAVYYCARHGNFGQSYVSWFAYWGQGTTVTVSS VL: QAVVTQEPSLTVSPGGTVTLTCRSSTGAVTTSNYANWVQQKPGQAPRGLIGGTNKRAPGVPARFSGSLLGDKAALTLLGAQPEDEAEYYCALWYSNLWVFGQGTKLTVLG",1.35 nM,0.0003 s⁻¹,223000 M⁻¹ s⁻¹,8.97 nM,0.00224 s⁻¹,250000 M⁻¹ s⁻¹,–
"hzsp34.92 (antibody, human IgG1, lambda, L234A L235A, V domains shown, CDR mutant of hzsp34.24; IgG1 L234A L235A, lambda) VH: EVQLVESGGGLVQPGGSLKLSCAASGFTFNTYAMNWVRQASGKGLEWVGRIRSKYNNYATYYADSVKDRFTISRDDSKSTLYLQMNSLKTEDTAVYYCARHGNFGQRYVSWFAYWGQGTTVTVSS VL: QAVVTQEPSLTVSPGGTVTLTCRSSTGAVTTSNYANWVQQKPGQAPRGLIGGTNKRAPGVPARFSGSLLGDKAALTLLGAQPEDEAEYYCALWYSNLWVFGQGTKLTVLG",0.772 nM,0.0002 s⁻¹,259000 M⁻¹ s⁻¹,4.82 nM,0.00101 s⁻¹,210000 M⁻¹ s⁻¹,–
"hzsp34.87 (antibody, human IgG1, lambda, L234A L235A, V domains shown, CDR mutant of hzsp34.24; IgG1 L234A L235A, lambda) VH: EVQLVESGGGLVQPGGSLKLSCAASGFTFNTYAMNWVRQASGKGLEWVGRIRSKYNNYATYYADSVKDRFTISRDDSKSTLYLQMNSLKTEDTAVYYCARHYNFGQSYVSWFAYWGQGTTVTVSS VL: QAVVTQEPSLTVSPGGTVTLTCRSSTGAVTTSNYANWVQQKPGQAPRGLIGGTNKRAPGVPARFSGSLLGDKAALTLLGAQPEDEAEYYCALWYSNLWVFGQGTKLTVLG",0.88 nM,0.000152 s⁻¹,173000 M⁻¹ s⁻¹,6.06 nM,0.000997 s⁻¹,165000 M⁻¹ s⁻¹,–
"hzsp34.94 (antibody, human IgG1, lambda, L234A L235A, V domains shown, CDR mutant of hzsp34.24; IgG1 L234A L235A, lambda) VH: EVQLVESGGGLVQPGGSLKLSCAASGFTFNTYAMNWVRQASGKGLEWVGRIRSKYNNYATYYADSVKDRFTISRDDSKSTLYLQMNSLKTEDTAVYYCARHGNFGQSYASWFAYWGQGTTVTVSS VL: QAVVTQEPSLTVSPGGTVTLTCRSSTGAVTTSNYANWVQQKPGQAPRGLIGGTNKRAPGVPARFSGSLLGDKAALTLLGAQPEDEAEYYCALWYSNLWVFGQGTKLTVLG",0.977 nM,0.0002 s⁻¹,205000 M⁻¹ s⁻¹,4.63 nM,0.000821 s⁻¹,177000 M⁻¹ s⁻¹,–
"hzsp34.89 (antibody, human IgG1, lambda, L234A L235A, V domains shown, CDR mutant of hzsp34.24; IgG1 L234A L235A, lambda) VH: EVQLVESGGGLVQPGGSLKLSCAASGFTFNTYAMNWVRQASGKGLEWVGRIRSKYNNYATYYADSVKDRFTISRDDSKSTLYLQMNSLKTEDTAVYYCARHGNAGQSYVSWFAYWGQGTTVTVSS VL: QAVVTQEPSLTVSPGGTVTLTCRSSTGAVTTSNYANWVQQKPGQAPRGLIGGTNKRAPGVPARFSGSLLGDKAALTLLGAQPEDEAEYYCALWYSNLWVFGQGTKLTVLG",6.62 nM,0.00094 s⁻¹,142000 M⁻¹ s⁻¹,13.8 nM,0.00282 s⁻¹,205000 M⁻¹ s⁻¹,–
"hzsp34.91 (antibody, human IgG1, lambda, L234A L235A, V domains shown, CDR mutant of hzsp34.24; IgG1 L234A L235A, lambda) VH: EVQLVESGGGLVQPGGSLKLSCAASGFTFNTYAMNWVRQASGKGLEWVGRIRSKYNNYATYYADSVKDRFTISRDDSKSTLYLQMNSLKTEDTAVYYCARHGNFGGSYVSWFAYWGQGTTVTVSS VL: QAVVTQEPSLTVSPGGTVTLTCRSSTGAVTTSNYANWVQQKPGQAPRGLIGGTNKRAPGVPARFSGSLLGDKAALTLLGAQPEDEAEYYCALWYSNLWVFGQGTKLTVLG",1.88 nM,0.000528 s⁻¹,280000 M⁻¹ s⁻¹,8.53 nM,0.00195 s⁻¹,228000 M⁻¹ s⁻¹,–
"hzsp34.82 (antibody, human IgG1, lambda, L234A L235A, V domains shown, CDR mutant of hzsp34.24; IgG1 L234A L235A, lambda) VH: EVQLVESGGGLVQPGGSLKLSCAASGFTFNTYAMNWVRQASGKGLEWVGRIRLKYNNYATYYADSVKDRFTISRDDSKSTLYLQMNSLKTEDTAVYYCARHGNFGQSYVSWFAYWGQGTTVTVSS VL: QAVVTQEPSLTVSPGGTVTLTCRSSTGAVTTSNYANWVQQKPGQAPRGLIGGTNKRAPGVPARFSGSLLGDKAALTLLGAQPEDEAEYYCALWYSNLWVFGQGTKLTVLG",10.3 nM,0.00168 s⁻¹,163000 M⁻¹ s⁻¹,12 nM,0.00191 s⁻¹,159000 M⁻¹ s⁻¹,–
"hzsp34.85 (antibody, human IgG1, lambda, L234A L235A, V domains shown, CDR mutant of hzsp34.24; IgG1 L234A L235A, lambda) VH: EVQLVESGGGLVQPGGSLKLSCAASGFTFNTYAMNWVRQASGKGLEWVGRIRSKYNGYATYYADSVKDRFTISRDDSKSTLYLQMNSLKTEDTAVYYCARHGNFGQSYVSWFAYWGQGTTVTVSS VL: QAVVTQEPSLTVSPGGTVTLTCRSSTGAVTTSNYANWVQQKPGQAPRGLIGGTNKRAPGVPARFSGSLLGDKAALTLLGAQPEDEAEYYCALWYSNLWVFGQGTKLTVLG",1.32 nM,0.000304 s⁻¹,230000 M⁻¹ s⁻¹,8.08 nM,0.00201 s⁻¹,249000 M⁻¹ s⁻¹,–
"hzsp34.93 (antibody, human IgG1, lambda, L234A L235A, V domains shown, CDR mutant of hzsp34.24; IgG1 L234A L235A, lambda) VH: EVQLVESGGGLVQPGGSLKLSCAASGFTFNTYAMNWVRQASGKGLEWVGRIRSKYNNYATYYADSVKDRFTISRDDSKSTLYLQMNSLKTEDTAVYYCARHGNFGQSAVSWFAYWGQGTTVTVSS VL: QAVVTQEPSLTVSPGGTVTLTCRSSTGAVTTSNYANWVQQKPGQAPRGLIGGTNKRAPGVPARFSGSLLGDKAALTLLGAQPEDEAEYYCALWYSNLWVFGQGTKLTVLG",0.976 nM,0.00026 s⁻¹,266000 M⁻¹ s⁻¹,3.42 nM,0.000836 s⁻¹,245000 M⁻¹ s⁻¹,–
"hzsp34.80 (antibody, human IgG1, lambda, L234A L235A, V domains shown, CDR mutant of hzsp34.24; IgG1 L234A L235A, lambda) VH: EVQLVESGGGLVQPGGSLKLSCAASGFTFNTAAMNWVRQASGKGLEWVGRIRSKYNNYATYYADSVKDRFTISRDDSKSTLYLQMNSLKTEDTAVYYCARHGNFGQSYVSWFAYWGQGTTVTVSS VL: QAVVTQEPSLTVSPGGTVTLTCRSSTGAVTTSNYANWVQQKPGQAPRGLIGGTNKRAPGVPARFSGSLLGDKAALTLLGAQPEDEAEYYCALWYSNLWVFGQGTKLTVLG",6.55 nM,0.00147 s⁻¹,225000 M⁻¹ s⁻¹,15.4 nM,0.00213 s⁻¹,138000 M⁻¹ s⁻¹,–
"hzsp34.84 (antibody, human IgG1, lambda, L234A L235A, V domains shown, CDR mutant of hzsp34.24; IgG1 L234A L235A, lambda) VH: EVQLVESGGGLVQPGGSLKLSCAASGFTFNTYAMNWVRQASGKGLEWVGRIRSKYGNYATYYADSVKDRFTISRDDSKSTLYLQMNSLKTEDTAVYYCARHGNFGQSYVSWFAYWGQGTTVTVSS VL: QAVVTQEPSLTVSPGGTVTLTCRSSTGAVTTSNYANWVQQKPGQAPRGLIGGTNKRAPGVPARFSGSLLGDKAALTLLGAQPEDEAEYYCALWYSNLWVFGQGTKLTVLG",0.812 nM,0.0002 s⁻¹,246000 M⁻¹ s⁻¹,4.89 nM,0.00114 s⁻¹,233000 M⁻¹ s⁻¹,–
"hzsp34.88 (antibody, human IgG1, lambda, L234A L235A, V domains shown, CDR mutant of hzsp34.24; IgG1 L234A L235A, lambda) VH: EVQLVESGGGLVQPGGSLKLSCAASGFTFNTYAMNWVRQASGKGLEWVGRIRSKYNNYATYYADSVKDRFTISRDDSKSTLYLQMNSLKTEDTAVYYCARHGGFGQSYVSWFAYWGQGTTVTVSS VL: QAVVTQEPSLTVSPGGTVTLTCRSSTGAVTTSNYANWVQQKPGQAPRGLIGGTNKRAPGVPARFSGSLLGDKAALTLLGAQPEDEAEYYCALWYSNLWVFGQGTKLTVLG",4.55 nM,0.000797 s⁻¹,175000 M⁻¹ s⁻¹,15.8 nM,0.00205 s⁻¹,130000 M⁻¹ s⁻¹,–
"hzsp34.79 (antibody, human IgG1, lambda, L234A L235A, V domains shown, CDR mutant of hzsp34.24; IgG1 L234A L235A, lambda) VH: EVQLVESGGGLVQPGGSLKLSCAASGFTFNGYAMNWVRQASGKGLEWVGRIRSKYNNYATYYADSVKDRFTISRDDSKSTLYLQMNSLKTEDTAVYYCARHGNFGQSYVSWFAYWGQGTTVTVSS VL: QAVVTQEPSLTVSPGGTVTLTCRSSTGAVTTSNYANWVQQKPGQAPRGLIGGTNKRAPGVPARFSGSLLGDKAALTLLGAQPEDEAEYYCALWYSNLWVFGQGTKLTVLG",0.507 nM,0.000118 s⁻¹,233000 M⁻¹ s⁻¹,6.36 nM,0.00154 s⁻¹,242000 M⁻¹ s⁻¹,–
"hzsp34.98 (antibody, human IgG1, lambda, L234A L235A, V domains shown, CDR mutant of hzsp34.24; IgG1 L234A L235A, lambda) VH: EVQLVESGGGLVQPGGSLKLSCAASGFTFNTYAMNWVRQASGKGLEWVGRIRSKYNNYATYYADSVKDRFTISRDDSKSTLYLQMNSLKTEDTAVYYCARHYGFGQSYVSWFAYWGQGTTVTVSS VL: QAVVTQEPSLTVSPGGTVTLTCRSSTGAVTTSNYANWVQQKPGQAPRGLIGGTNKRAPGVPARFSGSLLGDKAALTLLGAQPEDEAEYYCALWYSNLWVFGQGTKLTVLG",9.15 nM,0.00184 s⁻¹,201000 M⁻¹ s⁻¹,–,–,–,no binding
"hzsp34.83 (antibody, human IgG1, lambda, L234A L235A, V domains shown, CDR mutant of hzsp34.24; IgG1 L234A L235A, lambda) VH: EVQLVESGGGLVQPGGSLKLSCAASGFTFNTYAMNWVRQASGKGLEWVGRIRSKANNYATYYADSVKDRFTISRDDSKSTLYLQMNSLKTEDTAVYYCARHGNFGQSYVSWFAYWGQGTTVTVSS VL: QAVVTQEPSLTVSPGGTVTLTCRSSTGAVTTSNYANWVQQKPGQAPRGLIGGTNKRAPGVPARFSGSLLGDKAALTLLGAQPEDEAEYYCALWYSNLWVFGQGTKLTVLG",0.928 nM,0.0002 s⁻¹,216000 M⁻¹ s⁻¹,3.6 nM,0.000791 s⁻¹,220000 M⁻¹ s⁻¹,–
"hzsp34.81 (antibody, human IgG1, lambda, L234A L235A, V domains shown, CDR mutant of hzsp34.24; IgG1 L234A L235A, lambda) VH: EVQLVESGGGLVQPGGSLKLSCAASGFTFNTYAMNWVRQASGKGLEWVGRISSKYNNYATYYADSVKDRFTISRDDSKSTLYLQMNSLKTEDTAVYYCARHGNFGQSYVSWFAYWGQGTTVTVSS VL: QAVVTQEPSLTVSPGGTVTLTCRSSTGAVTTSNYANWVQQKPGQAPRGLIGGTNKRAPGVPARFSGSLLGDKAALTLLGAQPEDEAEYYCALWYSNLWVFGQGTKLTVLG",7.69 nM,0.00143 s⁻¹,186000 M⁻¹ s⁻¹,11.1 nM,0.00157 s⁻¹,142000 M⁻¹ s⁻¹,–
"hzsp34.86 (antibody, human IgG1, lambda, L234A L235A, V domains shown, CDR mutant of hzsp34.24; IgG1 L234A L235A, lambda) VH: EVQLVESGGGLVQPGGSLKLSCAASGFTFNTYAMNWVRQASGKGLEWVGRIRSKYNNYATYYADSVKDRFTISRDDSKSTLYLQMNSLKTEDTAVYYCARAGNFGQSYVSWFAYWGQGTTVTVSS VL: QAVVTQEPSLTVSPGGTVTLTCRSSTGAVTTSNYANWVQQKPGQAPRGLIGGTNKRAPGVPARFSGSLLGDKAALTLLGAQPEDEAEYYCALWYSNLWVFGQGTKLTVLG",1.39 nM,0.000354 s⁻¹,255000 M⁻¹ s⁻¹,6.61 nM,0.00144 s⁻¹,219000 M⁻¹ s⁻¹,–
